Data: the supplement of paper PMC9112550, “Optimization of the antimicrobial peptide Bac7 by deep mutational scanning” (BMC Biology, 2022)
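Also: peptides expressed intracellularly from a pBAD plasmid library in pooled LB shake-flask culture, induced with 0.3% L-arabinose, DNA abundance read by NGS, three biological replicates, DESeq2 with apeglm shrinkage.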

Each sequence was assayed on Escherichia coli TOP10 (assay: shrunken log2 fold change of peptide-encoding DNA abundance (4.5 h post-induction vs induction); higher = less antimicrobial activity (less host growth inhibition)). Details: time post-induction: 4.5 h; library: site-saturation at positions 5, 18, 19, 20.
In the case of RRIRLRPPRLPRPRPRPRNVPRP, the “shrunken log2 fold change” value is reported as -0.116.
With RRIRRRPPRLPRPRPRPHWMPRP the “shrunken log2 fold change” value was 0.122.
RRIRRRPPRLPRPRPRPRQQPRP was tested, and the “shrunken log2 fold change” value was -0.0361.
RRIRWRPPRLPRPRPRPWFWPRP was tested, and the “shrunken log2 fold change” value was 0.123.
In the case of RRIRCRPPRLPRPRPRPMKFPRP, the “shrunken log2 fold change” value is reported as -0.0717.
RRIRARPPRLPRPRPRPEKKPRP was tested, and the “shrunken log2 fold change” value was 0.275.
RRIRARPPRLPRPRPRPSFEPRP was tested, and the “shrunken log2 fold change” value was 0.327.
In the case of RRIRYRPPRLPRPRPRPEQPPRP, the “shrunken log2 fold change” value is reported as 0.00487.
With RRIRVRPPRLPRPRPRPADWPRP the “shrunken log2 fold change” value was 0.379.
For RRIRIRPPRLPRPRPRPMLMPRP, the “shrunken log2 fold change” value was -0.515.
RRIRKRPPRLPRPRPRPYYSPRP was tested, and the “shrunken log2 fold change” value was -0.373.
In the case of RRIRERPPRLPRPRPRPNYFPRP, the “shrunken log2 fold change” value is reported as -0.57.
In the case of RRIRARPPRLPRPRPRPWLTPRP, the “shrunken log2 fold change” value is reported as 0.0459.
RRIRGRPPRLPRPRPRPKGRPRP was tested, and the “shrunken log2 fold change” value was 0.792.
RRIRYRPPRLPRPRPRPKPGPRP was tested, and the “shrunken log2 fold change” value was 0.221.
With RRIRTRPPRLPRPRPRPCTNPRP the “shrunken log2 fold change” value was -0.0102.
With RRIRWRPPRLPRPRPRPDWEPRP the “shrunken log2 fold change” value was 0.229.
RRIRHRPPRLPRPRPRPFICPRP was tested, and the “shrunken log2 fold change” value was 0.00486.
With RRIRNRPPRLPRPRPRPEMQPRP the “shrunken log2 fold change” value was -0.00804.
With RRIRCRPPRLPRPRPRPAKDPRP the “shrunken log2 fold change” value was 0.021.
In the case of RRIRFRPPRLPRPRPRPNPKPRP, the “shrunken log2 fold change” value is reported as 0.0977.
RRIRERPPRLPRPRPRPEQAPRP was tested, and the “shrunken log2 fold change” value was 0.143.
RRIRTRPPRLPRPRPRPLRTPRP was tested, and the “shrunken log2 fold change” value was 0.26.
RRIRVRPPRLPRPRPRPVHTPRP was tested, and the “shrunken log2 fold change” value was -0.0364.
For RRIRDRPPRLPRPRPRPNIIPRP, the “shrunken log2 fold change” value was -0.117.
RRIRLRPPRLPRPRPRPCFMPRP was tested, and the “shrunken log2 fold change” value was -0.311.
In the case of RRIRSRPPRLPRPRPRPTYKPRP, the “shrunken log2 fold change” value is reported as -0.495.
In the case of RRIRRRPPRLPRPRPRPSYLPRP, the “shrunken log2 fold change” value is reported as -0.36.
RRIRKRPPRLPRPRPRPRNSPRP was tested, and the “shrunken log2 fold change” value was -0.0385.
RRIRPRPPRLPRPRPRPTYKPRP was tested, and the “shrunken log2 fold change” value was -0.455.
With RRIRGRPPRLPRPRPRPKLKPRP the “shrunken log2 fold change” value was 0.862.
In the case of RRIRSRPPRLPRPRPRPCHWPRP, the “shrunken log2 fold change” value is reported as -0.0782.
RRIRMRPPRLPRPRPRPKGYPRP was tested, and the “shrunken log2 fold change” value was -0.0135.
RRIRCRPPRLPRPRPRPRYSPRP was tested, and the “shrunken log2 fold change” value was -0.712.
In the case of RRIRMRPPRLPRPRPRPSSEPRP, the “shrunken log2 fold change” value is reported as -0.103.
With RRIRHRPPRLPRPRPRPAEFPRP the “shrunken log2 fold change” value was 0.108.
In the case of RRIRIRPPRLPRPRPRPYCKPRP, the “shrunken log2 fold change” value is reported as -0.592.
RRIRFRPPRLPRPRPRPYVPPRP was tested, and the “shrunken log2 fold change” value was -0.238.
RRIRIRPPRLPRPRPRPQPYPRP was tested, and the “shrunken log2 fold change” value was -0.84.
RRIRMRPPRLPRPRPRPTRKPRP was tested, and the “shrunken log2 fold change” value was 1.6.
RRIRIRPPRLPRPRPRPMIPPRP was tested, and the “shrunken log2 fold change” value was 1.87.
In the case of RRIRPRPPRLPRPRPRPWNKPRP, the “shrunken log2 fold change” value is reported as 0.163.
For RRIRWRPPRLPRPRPRPGVHPRP, the “shrunken log2 fold change” value was 0.135.
With RRIRVRPPRLPRPRPRPCSKPRP the “shrunken log2 fold change” value was -0.0775.
In the case of RRIRLRPPRLPRPRPRPQEPPRP, the “shrunken log2 fold change” value is reported as -0.0198.
With RRIRDRPPRLPRPRPRPQHMPRP the “shrunken log2 fold change” value was -0.11.
For RRIRARPPRLPRPRPRPVINPRP, the “shrunken log2 fold change” value was -0.383.
With RRIRQRPPRLPRPRPRPLYGPRP the “shrunken log2 fold change” value was 0.0686.
With RRIRFRPPRLPRPRPRPPIEPRP the “shrunken log2 fold change” value was -0.201.
In the case of RRIRQRPPRLPRPRPRPIASPRP, the “shrunken log2 fold change” value is reported as -0.0483.
For RRIRCRPPRLPRPRPRPKYQPRP, the “shrunken log2 fold change” value was -0.0383.
RRIRSRPPRLPRPRPRPEHNPRP was tested, and the “shrunken log2 fold change” value was -0.0911.
With RRIRSRPPRLPRPRPRPGLKPRP the “shrunken log2 fold change” value was 0.14.
In the case of RRIRERPPRLPRPRPRPTWDPRP, the “shrunken log2 fold change” value is reported as -0.327.
In the case of RRIRDRPPRLPRPRPRPRDCPRP, the “shrunken log2 fold change” value is reported as 0.0952.
In the case of RRIRKRPPRLPRPRPRPHDKPRP, the “shrunken log2 fold change” value is reported as 0.176.
RRIRRRPPRLPRPRPRPPNNPRP was tested, and the “shrunken log2 fold change” value was 0.177.
In the case of RRIRHRPPRLPRPRPRPDTMPRP, the “shrunken log2 fold change” value is reported as 0.031.
For RRIRSRPPRLPRPRPRPVVQPRP, the “shrunken log2 fold change” value was -0.0812.
For RRIRQRPPRLPRPRPRPQMVPRP, the “shrunken log2 fold change” value was 0.00426.
RRIRRRPPRLPRPRPRPRQEPRP was tested, and the “shrunken log2 fold change” value was 0.123.
In the case of RRIRWRPPRLPRPRPRPMMTPRP, the “shrunken log2 fold change” value is reported as 0.0544.
With RRIRVRPPRLPRPRPRPMDFPRP the “shrunken log2 fold change” value was -0.205.
For RRIRTRPPRLPRPRPRPHVHPRP, the “shrunken log2 fold change” value was -0.511.
RRIRQRPPRLPRPRPRPKYFPRP was tested, and the “shrunken log2 fold change” value was 0.0276.
For RRIRMRPPRLPRPRPRPCCCPRP, the “shrunken log2 fold change” value was 0.0604.
RRIRARPPRLPRPRPRPSCGPRP was tested, and the “shrunken log2 fold change” value was 0.287.
In the case of RRIRDRPPRLPRPRPRPEYNPRP, the “shrunken log2 fold change” value is reported as -0.116.
In the case of RRIRARPPRLPRPRPRPKMQPRP, the “shrunken log2 fold change” value is reported as 0.32.
In the case of RRIRTRPPRLPRPRPRPYGEPRP, the “shrunken log2 fold change” value is reported as -0.074.
In the case of RRIRPRPPRLPRPRPRPNVGPRP, the “shrunken log2 fold change” value is reported as 0.0392.
For RRIRVRPPRLPRPRPRPSWQPRP, the “shrunken log2 fold change” value was -0.251.
With RRIRKRPPRLPRPRPRPDNRPRP the “shrunken log2 fold change” value was 0.00592.
In the case of RRIRVRPPRLPRPRPRPDMLPRP, the “shrunken log2 fold change” value is reported as -0.024.
RRIRFRPPRLPRPRPRPLHPPRP was tested, and the “shrunken log2 fold change” value was -0.0197.
